The data set deals with cGAS (Homo sapiens, UniProt Q8N884 1-522). Nature of the data set: EMSA; 300 pmol protein, 50 pmol DNA in 10 uL; EMSA: Beyotime GS005 binding buffer, 37 C, 15 min, 10 uL, 6% PAGE in TBE at 4 C; extract pull-down: 50 mM Tris-HCl pH 7.5, 150 mM NaCl, 0.025% digitonin. The settings on record: protein: recombinant; tags: C-terminal LE-6xHis; chain copies: 2; label: none for EMSA (GelRed stain); blunt. On the technique in general: In EMSA bound probe runs differently from free probe, usually more slowly.
cGAS, sequence (Q8N884 whole entry): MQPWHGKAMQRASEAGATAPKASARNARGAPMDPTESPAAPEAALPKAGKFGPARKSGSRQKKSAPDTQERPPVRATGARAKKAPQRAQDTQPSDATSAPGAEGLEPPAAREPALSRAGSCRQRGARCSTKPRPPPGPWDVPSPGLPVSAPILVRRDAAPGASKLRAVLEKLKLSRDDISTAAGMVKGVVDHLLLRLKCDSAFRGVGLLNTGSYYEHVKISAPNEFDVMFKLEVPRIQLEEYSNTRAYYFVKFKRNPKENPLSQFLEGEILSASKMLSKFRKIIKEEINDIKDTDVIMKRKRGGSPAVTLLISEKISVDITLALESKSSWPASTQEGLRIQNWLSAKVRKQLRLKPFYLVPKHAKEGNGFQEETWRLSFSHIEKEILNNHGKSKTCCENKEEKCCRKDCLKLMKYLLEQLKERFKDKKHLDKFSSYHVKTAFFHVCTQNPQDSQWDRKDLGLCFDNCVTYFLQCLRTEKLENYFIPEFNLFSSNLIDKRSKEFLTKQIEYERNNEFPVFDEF

B1: DNA2 (30 bp) (dsDNA)
DNA 1: CCGAAACCAGACGAGCTACCTAAGAACAGC
DNA 2: GCTGTTCTTAGGTAGCTCGTCTGGTTTCGG
Regarding B1, the binding result is “binds”.

These data come from article PMC12678531, “Cytosolic TOP3α facilitates mitochondrial DNA sensing by cGAS”.
